How the values were obtained:
[1] = target: 30-kDa subunit of the cellular cleavage and polyadenylation specificity factor (CPSF30), human (human) (UniProt O95639); assay: cell-based or functional assay
[2] = target: NS1A protein of the influenza A/PR8/34 (PR8) virus strain (influenza A virus A/PR8/34, UniProt P03496 1-230); assay: not described
NS1A protein of the influenza A/PR8/34 (PR8) virus strain, sequence (P03496 whole entry): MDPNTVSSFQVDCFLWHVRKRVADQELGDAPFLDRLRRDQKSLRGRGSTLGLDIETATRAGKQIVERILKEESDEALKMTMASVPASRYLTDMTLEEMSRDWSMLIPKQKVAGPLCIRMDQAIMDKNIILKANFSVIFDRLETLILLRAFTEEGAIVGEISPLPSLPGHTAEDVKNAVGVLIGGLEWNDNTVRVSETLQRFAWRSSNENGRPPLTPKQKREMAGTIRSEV

30-kDa subunit of the cellular cleavage and polyadenylation specificity factor (CPSF30), human (human), sequence (O95639 whole entry): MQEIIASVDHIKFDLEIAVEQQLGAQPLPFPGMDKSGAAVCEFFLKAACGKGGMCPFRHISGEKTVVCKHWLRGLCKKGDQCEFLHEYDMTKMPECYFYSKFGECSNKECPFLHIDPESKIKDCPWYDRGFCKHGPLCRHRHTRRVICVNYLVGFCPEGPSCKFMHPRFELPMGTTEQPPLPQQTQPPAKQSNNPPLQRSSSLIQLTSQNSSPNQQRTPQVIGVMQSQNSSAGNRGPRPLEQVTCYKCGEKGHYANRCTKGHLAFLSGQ

## HK97 NS1A protein with I at position 106 changed to M and L at 103 changed to F
[1]
  rate of replication and virus yield during multiple cycle growth: 100 fold

B1: F2F3 fragment of CPSF30 (construct not stated) (other)
chain: SGEKTVVCKHWLRGLCKKGDQCEFLHEYDMTKMPECYFYSKFGECSNKECPFLHIDPESKI
[2]
  binding result: no binding
